Tests used:
[1] = biological target: cynomolgus monkey CD86 extracellular domain with FLAG 10xhis tag (cynomolgus monkey); experiment: SPR (Biacore 2000), ratio of KD
[2] = biological target: human CD86 extracellular domain with FLAG 10xhis tag (human); experiment: SPR (Biacore 2000), ratio of KD
[3] = biological target: cynomolgus monkey CD86 extracellular domain with FLAG 10xhis tag (cynomolgus monkey); experiment: SPR (Biacore 2000), CTLA-4-Fc amine-coupled to CM5, ligand ECD as analyte, monovalent affinity
[4] = biological target: human CD86 extracellular domain with FLAG 10xhis tag (human); experiment: as above

Sequence of cynomolgus monkey CD86 extracellular domain with FLAG 10xhis tag (cynomolgus monkey) (chain, as listed by the source limits assumed, form in doubt): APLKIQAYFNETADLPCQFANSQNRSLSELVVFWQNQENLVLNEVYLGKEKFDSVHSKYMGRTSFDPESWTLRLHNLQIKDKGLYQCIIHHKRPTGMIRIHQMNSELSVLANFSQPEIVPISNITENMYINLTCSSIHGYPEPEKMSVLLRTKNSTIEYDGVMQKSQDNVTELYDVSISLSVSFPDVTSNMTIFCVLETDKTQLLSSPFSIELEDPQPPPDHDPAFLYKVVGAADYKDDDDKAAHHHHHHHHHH
Sequence of human CD86 extracellular domain with FLAG 10xhis tag (human) (chain, as listed by the source limits assumed, form in doubt): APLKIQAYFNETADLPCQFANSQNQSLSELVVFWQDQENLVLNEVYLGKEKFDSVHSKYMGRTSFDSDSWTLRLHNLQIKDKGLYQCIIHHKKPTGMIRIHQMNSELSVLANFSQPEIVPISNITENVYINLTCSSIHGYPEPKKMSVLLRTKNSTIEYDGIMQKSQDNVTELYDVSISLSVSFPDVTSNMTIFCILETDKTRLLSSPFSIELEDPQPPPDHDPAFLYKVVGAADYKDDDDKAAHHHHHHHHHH

wild type CTLA-4 (SEQ ID NO: 35) in Fc fusion format
fold-improvement in affinity over wild type CTLA-4 in Fc fusion format [1]: 1 fold
fold-improvement in affinity over wild type CTLA-4 in Fc fusion format [2]: 1 fold
Kd [3]: 6.53 µM
Kd [4]: 6.42 µM

Reference: US20150104450A1
